Measurements taken from article PMC12350541, “Continuous Spectrophotometric Assay for Defluorinase and Dechlorinase Activities With α‐Halocarboxylic Acids” (Microbial Biotechnology, 2025).

Experiments:
[1] = molecular target: T1, rabbit heart lactate dehydrogenase (Oryctolagus cuniculus, UniProt A0A5F9DPL1); test: NADH oxidation, A340; assay type: biochemical; details: 0.300 mM NADH, 0.1 M Tris pH 9.0
T1 construct: gene LDHB; commercial native enzyme from heart (MilliporeSigma), tetramer

O=C(O)C(F)Cl = test: LDH-coupled NADH oxidation, A340, 96-well plate, Michaelis-Menten fit; assay type: biochemical, Dechloromonas aromatica (nom. nud.); details: 0.1 M Tris pH 8.0, room temperature not stated for plate, 40 ug DEF2, 50 ug LDH, 400 uM NADH, racemic substrate 1-30 mM

T1 sequence (A0A5F9DPL1 1-334): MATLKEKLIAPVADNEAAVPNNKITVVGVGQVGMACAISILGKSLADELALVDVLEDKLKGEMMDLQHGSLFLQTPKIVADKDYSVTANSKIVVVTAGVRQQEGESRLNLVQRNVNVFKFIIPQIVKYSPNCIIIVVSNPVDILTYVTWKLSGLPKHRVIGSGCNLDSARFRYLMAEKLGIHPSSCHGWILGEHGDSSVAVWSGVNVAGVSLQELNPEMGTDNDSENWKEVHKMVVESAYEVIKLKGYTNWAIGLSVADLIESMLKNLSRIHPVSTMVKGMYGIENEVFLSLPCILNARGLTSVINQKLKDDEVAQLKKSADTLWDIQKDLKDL

Row | Compound | NADH oxidation, A340 [1] | Km (O=C(O)C(F)Cl) [mM] | kcat (O=C(O)C(F)Cl) [s⁻¹]
1 | O=CC(=O)O [glyoxylate] | activity with commercial rabbit heart lactate dehydrogenase with glyoxylate was too slow | – | –
2 | DEF2 (Dechloromonas aromatica RCB) | – | 6.0 | 0.00533
